Test results as given in patent US7422883B2, “Map kinase integrin-binding domain” (Inter-K Pty Limited, priority 2000, dated 2008).
Each block holds one compound with its values, some of them ahead of it. No end group written: not given here. *: point of attachment. Biotin = O=C1N[C@H]2[C@H](CS[C@H]2CCCCC(=O)*)N1

Tests used:
[1] = system: gelatinase B secretion by SW480 β6 transfectants; experiment: Gelatinase B secretion, gelatin zymogram of tumour-conditioned medium; format: cell-based, human; details: 40 μM, serum-free, 48 hours, versus DMSO control
Description: SW480 β6 transfectants were cultured under serum-free conditions for 48 hours in the absence/presence of the MEK inhibitor PD98059 (40 μM) or DMSO (vehicle control). Tumour-conditioned medium was assayed for gelatinase B by analysis of equal protein loads in a gelatin zymogram.

[2] = system: MAP kinase activity in WiDr wild-type cells; experiment: MAP kinase assay, serum-stimulated WiDr cells; format: cell-based, human; details: inhibitors 40 μM added one hour before serum, serum 30 min
Description: (§1) Cultures of WiDr and HT29 mock and antisense β6 transfectants were established by seeding 1×10^6 cells/5 ml of culture medium in 25 cm^2 tissue culture flasks. Cells were incubated at 37° C. in humidified CO2 for 24 hours before serum starvation in serum-free medium for the next 16 hours. Foetal calf serum was then added to a final concentration of 10% for 30 mins before MAP kinase assays were performed. […] The ability of cells to transfer phosphate from [γ^32P]-ATP to a synthetic peptide that contains specifically a p42/p44 MAP kinase phosphorylation site was measured as described in the manufacturer's instructions. [^32P]-labelled peptides were spotted onto PEI-cellulose paper, unbound radioactivity was washed with 75 mM phosphoric acid and bound [^32P]-labelled peptides were measured by liquid scintillation counting. Protein estimation was performed on each cell lysate used and enzyme activity calculated as described in the manufacturer's instructions. […]
(§2) The effect of MEK (MAP kinase) inhibitors UO126 and PD98059 on MAP kinase activity in WiDr and HT29 wild-type cells was tested in the absence/presence of serum. […] Serum was then added for 30 min and MAP kinase activity assessed before and after addition of serum. […]

[3] = system: MAP kinase activity in HT29 wild-type cells; experiment: MAP kinase assay, serum-stimulated HT29 cells; format: cell-based, human; details: inhibitors 40 μM added one hour before serum, serum 30 min
Description: as §1, §2

ERK2 = target: T1, ERK2 (Mus musculus, UniProt P63085); experiment: ELISA of ERK2 binding to biotinylated integrin cytoplasmic domain peptides; details: for binding of ERK2 to peptide: ERK2 cleaved from GST-ERK2 by thrombin, FIG. 23; for binding of peptide to ERK2: ERK2 (1 μm), FIG. 35C; for binding of ERK2 to integrin subunit peptides: corrected for non-specific binding, FIG. 34
T1 construct: GST (glutathione-S-transferase); made in house
Description: Peptide fragments corresponding to regions of the cytoplasmic tail domain of the β6 subunit were screened in an enzyme-linked immunosorbent assay (ELISA) for binding with ERK2. The 52 amino acid long β6 cytoplasmic tail is shown in FIG. 16 as are the amino acid sequences for the cytoplasmic domains of the β1 to β3 subunits. In particular, four synthetic peptides designated fragment 1 to fragment 4 were prepared and biotinylated at the N-terminal end of each, respectively (Auspep Pty Ltd, Melbourne Australia).
Overlapping biotinylated fragments 1 to 4 were coated onto streptavidin coated polystyrene plates (Pierce, Rockford Ill. USA, Cat No. 15125) and the ELISA performed substantially according to manufacturers instructions. Briefly, wells are washed with 3×200 μl of wash buffer (TBS, 0.1% BSA, 0.05% Tween 20 or SuperBlock™ blocking buffer in TBS, Pierce, Prod. No. 37535) prior to addition of biotinylated peptides (100 μl) and incubation for 1 hr at room temperature to allow for capture of the peptides on the plate. Following another washing step, peptides were overlayed with GST-ERK, ERK (or JNK-1) alone at a volume of 100 μl per well, and the plates incubated for a further 1 hr at room temperature before removal of any unbound ERK by further washing.
Binding of ERK to the peptides is detected using 100 μl anti-ERK1/2 mAb SC1647 (Santa Cruz) as the primary antibody at a dilution of 1:700 (isotype matched antibody IgG2b is used as a control). This is followed by another washing step and addition of 100 μl rabbit anti-mouse antibody (Biorad) conjugated to alkaline phosphatase at a concentration of 1:1000 for 30 minutes again at room temperature. A […] of detection reagent (alkaline phosphatase detection kit-Biorad) is then introduced into each well after a final washing step and allowed to react for 15-30 minutes at room temperature in the dark before absorbance is measured at 405 nm. All dilutions of peptides, MAP kinase and antibodies were performed using the wash buffer. GST-ERK is a fusion protein consisting of ERK coupled to glutathione-S-transferase and purified from host cells transfected with pGEX vector.
To further localise the binding domain on the cytoplasmic tail of the β6 subunit, progressively shorter peptides from the region of the β6 cytoplasmic tail corresponding to peptide fragment 2 were synthesised, biotinylated and the capacity to associate or otherwise bind to ERK2 assessed as described above. The binding of GST.ERK2 to a 15 mer test peptide (seq. 4) having the amino acid sequence RSKAKWQTGTNPLYR (SEQ ID NO: 7) and a 10 mer test peptide having the sequence RSKAKWQTGT (SEQ ID NO: 21) is shown in FIG. 20 compared to fragment 2 over a range of concentrations of the peptides. […] 4 peptide compared to fragment 2 was found. Binding of ERK2 to the seq. 3 peptide was substantially less than that observed for seq. 4.
Binding of ERK2 to the seq.4 peptide (RSKAKWQTGTNPLYR) (SEQ ID NO: 7) was compared with peptides corresponding to regions of the cytoplasmic domain of integrin subunits β1, β2, β3 and β5. The amino acid sequences for those peptides is shown below:
To evaluate this, cell lysates containing equal protein loads were prepared from SW480 wild-type cells and SW480 cells transfected with either vector alone (mock transfectants), wild type β6 or the β6 deletion mutant Δ746-764 (lacking the sequence EAERSKAKWQTGTNPLYRG (SEQ ID NO: 26), Cone et al, 1994). The lysates were immunoprecipitated with mAbs R6G9 (anti-β6), P1F6 (anti-β5) or murine IgG control antibody (mlgG). […] To determine whether β5 can bind ERK2 in vitro, a 15-mer peptide fragment derived from the β5 cytoplasmic domain corresponding to the ERK binding domain on β6 was tested for its ability to bind ERK2 in an ELISA.

T1 sequence (P63085 whole entry, the tested form may be a part): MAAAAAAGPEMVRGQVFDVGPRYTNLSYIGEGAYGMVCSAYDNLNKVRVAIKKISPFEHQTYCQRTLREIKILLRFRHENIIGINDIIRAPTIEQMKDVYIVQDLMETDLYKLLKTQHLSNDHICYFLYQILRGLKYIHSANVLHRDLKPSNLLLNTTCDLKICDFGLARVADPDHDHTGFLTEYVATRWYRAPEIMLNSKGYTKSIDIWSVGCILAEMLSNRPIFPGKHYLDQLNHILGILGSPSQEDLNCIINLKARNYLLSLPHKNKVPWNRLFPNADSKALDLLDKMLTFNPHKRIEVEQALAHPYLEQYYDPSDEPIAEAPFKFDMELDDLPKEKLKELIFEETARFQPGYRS

Compound: COc1cccc(-c2cc(=O)c3ccccc3o2)c1N [PD98059]
gelatinase B secretion [1]: reduced gelatinase B secretion compared with controls | serum-stimulated MAP kinase activity [2]: inhibitable | serum-stimulated MAP kinase activity [3]: inhibitable

binding of ERK2 to peptide (ERK2): Comparable binding of ERK2 to seq. 4
Compound: RSKAKNPLYR [10(4), 4 is omitted]

binding of peptide to ERK2 (ERK2): Dose-dependant binding
Compound: RSRARYEMASNPLYR [β5, 15-mer peptide of the β5 cytoplasmic domain]
binding of ERK2 to integrin subunit peptides (ERK2): Binding of ERK2 to the β5 and β3 peptides was also found

binding of ERK2 to peptide (ERK2): Negligible binding
Compound: RSKAK (also: biotinylated, site not given here) [5 mer peptide]

binding of non-phosphorylated GST.ERK2 to peptide (ERK2; GST.ERK2 0.25 μg/100 μl, peptide 1 μg/100 μl, FIG. 17): significant binding | binding of non-phosphorylated ERK2 to peptide (ERK2; over a range of concentrations of ERK2, FIG. 18): Significant binding
Compound: RSKAKWQTGTNPLYRGSTST (Biotin-RSKAKWQTGTNPLYRGSTST) [fragment 2, biotinylated peptide of the β6 cytoplasmic tail]

binding of peptide to ERK2 (ERK2): failed to bind ERK2
Compound: KFEKEKMNAKWDTGENPIYK [β1, peptide of the β1 cytoplasmic domain]

Compound: RSKAKWQTGT (also: biotinylated, site not given here) [seq. 3, 10 mer test peptide of the β6 cytoplasmic tail]
binding of GST.ERK2 to peptide (ERK2; over a range of concentrations of the peptides, compared to fragment 2, FIG. 20): substantially less than that observed for seq. 4

Compound: RARAKWDTANNPLYK [β3, peptide of the β3 cytoplasmic domain]
binding of ERK2 to integrin subunit peptides (ERK2): Binding of ERK2 to the β5 and β3 peptides was also found
